According to the supplement of paper PMC10567573:

B1: NCK2 (parent)
chain: YTGPSSSGRFAGREWYYGNVTRHQ

Variants of: B1
Test: protein stability index of a GFP-peptide fusion (GPS, HEK-293T) (PSI 1-6); higher = more stable
Conditions: c terminus: a fixed tail appended
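Note: lentivirally expressed fusions sorted by FACS into six bins by GFP to DsRed ratio, PSI derived from sequencing read proportions per bin multiplied by bin number.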

Point of comparison: YTGPSSSGRFAGRLWYYGNVTRHQ [E14L], protein stability index 1.68. Against it:
- YTGPSSSGRIAGREWYYGNVTRHQ [F10I] — higher, 1.89
- YTGPSSSGRDAGREWYYGNVTRHQ [F10D] — higher, 1.93
- YTGPSSSGRHAGREWYYGNVTRHQ [F10H] — higher, 2
- YTGPSSSGRRAGREWYYGNVTRHQ [F10R] — lower, 1.66
- YTGPSSSGREAGREWYYGNVTRHQ [F10E] — higher, 2.95
- YTGPSSSGRNAGREWYYGNVTRHQ [F10N] — higher, 2.13
- YTGPSSSGRQAGREWYYGNVTRHQ [F10Q] — higher, 1.84
- YTGPSSSGRTAGREWYYGNVTRHQ [F10T] — higher, 2.2
- YTGPSSSGRSAGREWYYGNVTRHQ [F10S] — higher, 2.11
- YTGPSSSGRYAGREWYYGNVTRHQ [F10Y] — lower, 1.64
- YTGPSSSGRMAGREWYYGNVTRHQ [F10M] — higher, 2.1
- YTGPSSSGRKAGREWYYGNVTRHQ [F10K] — higher, 2.25
- YTGPSSSGRAAGREWYYGNVTRHQ [F10A] — higher, 2.14
- YTGPSSSGRVAGREWYYGNVTRHQ [F10V] — higher, 2.13
- YTGPSSSGRPAGREWYYGNVTRHQ [F10P] — higher, 2.42
- YTGPSSSGRWAGREWYYGNVTRHQ [F10W] — higher, 3.07
- YTGPSSSGRLAGREWYYGNVTRHQ [F10L] — lower, 1.44
- YTGPSSSGRCAGREWYYGNVTRHQ [F10C] — lower, 1.44
- YTGPSSSGRGAGREWYYGNVTRHQ [F10G] — higher, 2.35
- YTGPSSSGTFAGREWYYGNVTRHQ [R9T] — lower, 1.44
- YTGPSSSGSFAGREWYYGNVTRHQ [R9S] — lower, 1.38
- YTGPSSSGYFAGREWYYGNVTRHQ [R9Y] — higher, 1.73
- YTGPSSSGVFAGREWYYGNVTRHQ [R9V] — higher, 1.85
- YTGPSSSGRFAAREWYYGNVTRHQ [G12A] — higher, 1.73
- YTGPSSSGRFAHREWYYGNVTRHQ [G12H] — higher, 2.26
- YTGPSSSGRFALREWYYGNVTRHQ [G12L] — higher, 2.25
- YTGPSSSGRFAVREWYYGNVTRHQ [G12V] — higher, 1.84
- YTGPSSSGRFAKREWYYGNVTRHQ [G12K] — higher, 2.32
- YTGPSSSGRFAWREWYYGNVTRHQ [G12W] — higher, 1.9
- YTGPSSSGRFANREWYYGNVTRHQ [G12N] — higher, 3.14
- YTGPSSSGRFARREWYYGNVTRHQ [G12R] — higher, 1.98
- YTGPSSSGRFAFREWYYGNVTRHQ [G12F] — higher, 2.45
- YTGPSSSGRFACREWYYGNVTRHQ [G12C] — higher, 2.81
- YTGPSSSGRFADREWYYGNVTRHQ [G12D] — higher, 2.44
- YTGPSSSGRFAYREWYYGNVTRHQ [G12Y] — higher, 2.1
- YTGPSSSGRFAMREWYYGNVTRHQ [G12M] — higher, 1.75
- YTGPSSSGRFASREWYYGNVTRHQ [G12S] — lower, 1.52
- YTGPSSSGRFAQREWYYGNVTRHQ [G12Q] — higher, 2.09
- YTGPSSSGRFAIREWYYGNVTRHQ [G12I] — higher, 2.66
- YTGPSSSGRFAEREWYYGNVTRHQ [G12E] — lower, 1.49
- YTGPSSSGRFATREWYYGNVTRHQ [G12T] — higher, 2.17
- YTGPSSSGRFAPREWYYGNVTRHQ [G12P] — lower, 1.42
- YTGPSSSGRFAGRGWYYGNVTRHQ [E14G] — higher, 1.69
- YTGPSSSGRFAGRAWYYGNVTRHQ [E14A] — lower, 1.57
- YTGPSSSGRFAGRIWYYGNVTRHQ [E14I] — lower, 1.58
- YTGPSSSGRFAGRNWYYGNVTRHQ [E14N] — higher, 1.78
- YTGPSSSGRFAGRQWYYGNVTRHQ [E14Q] — higher, 2.09
- YTGPSSSGRFAGRFWYYGNVTRHQ [E14F] — higher, 1.95
- YTGPSSSGRFAGRMWYYGNVTRHQ [E14M] — lower, 1.64
- YTGPSSSGRFAGRSWYYGNVTRHQ [E14S] — lower, 1.67
- YTGPSSSGRFAGRRWYYGNVTRHQ [E14R] — higher, 2.58
- YTGPSSSGRFAGRPWYYGNVTRHQ [E14P] — higher, 1.87
- YTGPSSSGRFAGRCWYYGNVTRHQ [E14C] — higher, 3.32
- YTGPSSSGRFAGRHWYYGNVTRHQ [E14H] — higher, 2.69
- YTGPSSSGRFAGRKWYYGNVTRHQ [E14K] — higher, 2.03
- YTGPSSSGRFAGRDWYYGNVTRHQ [E14D] — lower, 1.4
- YTGPSSSGRFKGREWYYGNVTRHQ [A11K] — lower, 1.32
- YTGPSSSGRFDGREWYYGNVTRHQ [A11D] — higher, 1.95
- YTGPSSSGRFWGREWYYGNVTRHQ [A11W] — higher, 3.03
- YTGPSSSGRFSGREWYYGNVTRHQ [A11S] — higher, 2.2
- YTGPSSSGRFTGREWYYGNVTRHQ [A11T] — higher, 2.3
- YTGPSSSGRFRGREWYYGNVTRHQ [A11R] — higher, 1.85
- YTGPSSSGRFFGREWYYGNVTRHQ [A11F] — higher, 4.19
- YTGPSSSGRFNGREWYYGNVTRHQ [A11N] — higher, 2.34
- YTGPSSSGRFYGREWYYGNVTRHQ [A11Y] — higher, 2.2
- YTGPSSSGRFHGREWYYGNVTRHQ [A11H] — higher, 2
- YTGPSSSGRFEGREWYYGNVTRHQ [A11E] — higher, 2.04
- YTGPSSSGRFVGREWYYGNVTRHQ [A11V] — lower, 1.62
- YTGPSSSGRFLGREWYYGNVTRHQ [A11L] — higher, 2.02
- YTGPSSSGRFPGREWYYGNVTRHQ [A11P] — lower, 1.25
- YTGPSSSGRFIGREWYYGNVTRHQ [A11I] — lower, 1.55
- YTGPSSSGRFGGREWYYGNVTRHQ [A11G] — higher, 2.44
- YTGPSSSGRFQGREWYYGNVTRHQ [A11Q] — higher, 2.21
- YTGPSSSGRFMGREWYYGNVTRHQ [A11M] — lower, 1.48
- YTGPSSSGRFAGGEWYYGNVTRHQ [R13G] — higher, 2.21
- YTGPSSSGRFAGDEWYYGNVTRHQ [R13D] — higher, 2.09
- YTGPSSSGRFAGEEWYYGNVTRHQ [R13E] — higher, 2
- YTGPSSSGRFAGKEWYYGNVTRHQ [R13K] — higher, 2.02
- YTGPSSSGRFAGLEWYYGNVTRHQ [R13L] — higher, 1.7
- YTGPSSSGRFAGSEWYYGNVTRHQ [R13S] — higher, 2.03
- YTGPSSSGRFAGNEWYYGNVTRHQ [R13N] — higher, 1.91
- YTGPSSSGRFAGTEWYYGNVTRHQ [R13T] — higher, 1.81
- YTGPSSSGRFAGQEWYYGNVTRHQ [R13Q] — higher, 2.44
- YTGPSSSGRFAGCEWYYGNVTRHQ [R13C] — higher, 3.48
- YTGPSSSGRFAGFEWYYGNVTRHQ [R13F] — higher, 2.33
- YTGPSSSGRFAGYEWYYGNVTRHQ [R13Y] — higher, 1.94
- YTGPSSSGRFAGVEWYYGNVTRHQ [R13V] — higher, 2.44
- YTGPSSSGRFAGAEWYYGNVTRHQ [R13A] — lower, 1.61
- YTGPSSSGRFAGMEWYYGNVTRHQ [R13M] — lower, 1.63
- YTGPSSSGRFAGWEWYYGNVTRHQ [R13W] — higher, 2.01
- YTGPSSSGRFAGPEWYYGNVTRHQ [R13P] — higher, 1.97
- YTGPSSSGRFAGHEWYYGNVTRHQ [R13H] — higher, 2.75
- YTGPSSSGRFAGIEWYYGNVTRHQ [R13I] — higher, 2.64
